We go through one molecule from paper PMC5374410, “Identification of a Potent Allosteric Inhibitor of Human Protein Kinase CK2 by Bacterial Surface Display Library Screening” (Pharmaceuticals, 2017).

This assay has as its target CK2β^1–193-pAzF coupled to fluorescein (human) (UniProt P67870). Put plainly: MST; B2 titrated (7.6 nM to 125 or 250 µM) to 100 nM fluorophore-labelled CK2α-DBCO-Sulfo-Cy5 or CK2β^1-193-Flu; 50 mM Tris/HCl pH 7.5, 25 mM NaCl, 20 mM MgCl2, Tween-20, DMSO; 37 °C, MST power 60%; Monolith NT.115; three independent measurements.

In turn, DCRGLIVMIKLH [peptide B2 (free synthetic peptide)] displayed a dissociation constant Kd of over 100 µM.

For orientation: Kd means the constant that tells how readily two partners part at equilibrium. Low readings indicate higher affinity, high ones lower affinity.
